Target: carcinoembryonic antigen (CEA) (Homo sapiens (Human), UniProt P06731)
Test: cell-based or functional assay

B1: MFE23 CD28(IEV) truncated CoStAR (CAR)
chain: QVKLQQSGAELVRSGTSVKLSCTASGFNIKDSYMHWLRQGPEQGLEWIGWIDPENGDTEYAPKFQGKATFTTDTSSNTAYLQLSSLTSEDTAVYYCNEGTPTGPYYFDYWGQGTTVTVSSGGGGSGGGGSGGGGSENVLTQSPAIMSASPGEKVTITCSASSSVSYMHWFQQKPGTSPKLWIYSTSNLASGVPARFSGSGSGTSYSLTISRMEAEDAATYYCQQRSSYPLTFGAGTKLELKRIEVMYPPPYLDNEKSNGTIIHVKGKHLCPSPLFPGPSKPFWVLVVVGGVLACYSLLVTVAFIIFWVRSKRSRLLHSDYMNMTPRRPGPTRKHYQPYAPPRDFAAYRS
IL-2 secretion (ELISA): 4.6 ng/mL

Source: patent US20230227576A1 (published 2023)
